Here are results for 2 molecules from paper PMC10724393, “FOXA2 Suppression by TRIM36 Exerts Anti‐Tumor Role in Colorectal Cancer Via Inducing NRF2/GPX4‐Regulated Ferroptosis” (Advanced Science, 2023).

One assay concerns the target T1, His-tagged TRIM36 (human, UniProt Q9NQ86 1-728).
T1 construct: TRIM36, human; construct and limits of the His-tagged protein are not described; also called His-TRIM36; source: purified
T1 sequence (looked up): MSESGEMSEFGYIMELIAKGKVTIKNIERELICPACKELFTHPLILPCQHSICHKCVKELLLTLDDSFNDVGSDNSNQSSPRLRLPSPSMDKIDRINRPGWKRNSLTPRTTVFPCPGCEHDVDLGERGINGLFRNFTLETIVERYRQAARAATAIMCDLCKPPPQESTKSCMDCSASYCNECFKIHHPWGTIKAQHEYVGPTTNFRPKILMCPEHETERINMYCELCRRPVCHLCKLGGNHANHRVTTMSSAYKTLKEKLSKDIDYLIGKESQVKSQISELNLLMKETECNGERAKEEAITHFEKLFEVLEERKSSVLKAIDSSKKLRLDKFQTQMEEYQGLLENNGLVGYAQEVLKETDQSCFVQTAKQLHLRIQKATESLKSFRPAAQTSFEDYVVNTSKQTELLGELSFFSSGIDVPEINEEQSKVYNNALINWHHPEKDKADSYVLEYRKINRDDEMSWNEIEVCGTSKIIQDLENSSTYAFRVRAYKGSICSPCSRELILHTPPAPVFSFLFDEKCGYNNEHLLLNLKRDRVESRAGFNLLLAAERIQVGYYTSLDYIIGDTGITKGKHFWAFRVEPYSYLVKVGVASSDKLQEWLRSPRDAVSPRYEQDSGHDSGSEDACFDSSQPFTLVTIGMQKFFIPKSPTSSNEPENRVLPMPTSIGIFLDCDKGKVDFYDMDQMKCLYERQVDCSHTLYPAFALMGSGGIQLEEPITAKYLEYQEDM
The experiment in a line: pull-down; GST fusion on glutathione-Sepharose 4B beads, incubated with purified His-tagged partner for 4 h; eluate blotted with anti-His; GST alone as control. The conditions noted are these: both partners purified.

The target in a further assay is T2, GST-TRIM36 (human, UniProt Q9NQ86 1-728).
T2 construct: TRIM36, human cDNA, full length, cloned into pGEX-4T-1-GST; also called purified GST-TRIM36
T2 sequence (looked up): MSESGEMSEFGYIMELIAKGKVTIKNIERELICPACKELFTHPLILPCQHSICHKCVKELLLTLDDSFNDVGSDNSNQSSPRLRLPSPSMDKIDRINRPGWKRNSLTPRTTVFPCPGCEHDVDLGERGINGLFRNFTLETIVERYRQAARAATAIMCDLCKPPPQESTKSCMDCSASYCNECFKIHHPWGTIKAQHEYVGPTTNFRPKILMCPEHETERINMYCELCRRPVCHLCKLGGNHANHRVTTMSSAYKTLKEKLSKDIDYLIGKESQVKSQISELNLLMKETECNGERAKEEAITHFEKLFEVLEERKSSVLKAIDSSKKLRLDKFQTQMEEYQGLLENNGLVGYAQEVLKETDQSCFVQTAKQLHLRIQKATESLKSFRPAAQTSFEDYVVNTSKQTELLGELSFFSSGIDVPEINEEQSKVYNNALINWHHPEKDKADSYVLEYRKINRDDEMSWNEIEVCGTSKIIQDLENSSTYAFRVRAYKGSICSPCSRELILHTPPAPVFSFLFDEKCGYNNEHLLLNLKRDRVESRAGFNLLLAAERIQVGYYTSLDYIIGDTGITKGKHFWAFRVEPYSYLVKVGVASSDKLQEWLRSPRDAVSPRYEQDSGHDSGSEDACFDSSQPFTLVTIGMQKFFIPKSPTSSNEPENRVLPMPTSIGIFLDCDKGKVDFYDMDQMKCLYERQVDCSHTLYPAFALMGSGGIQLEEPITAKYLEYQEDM
Described as above. The conditions noted are these: both partners purified.

B1: GST-FOXA2 (natural protein, human, UniProt Q9Y261 1-457, looked up)
chain: MLGAVKMEGHEPSDWSSYYAEPEGYSSVSNMNAGLGMNGMNTYMSMSAAAMGSGSGNMSAGSMNMSSYVGAGMSPSLAGMSPGAGAMAGMGGSAGAAGVAGMGPHLSPSLSPLGGQAAGAMGGLAPYANMNSMSPMYGQAGLSRARDPKTYRRSYTHAKPPYSYISLITMAIQQSPNKMLTLSEIYQWIMDLFPFYRQNQQRWQNSIRHSLSFNDCFLKVPRSPDKPGKGSFWTLHPDSGNMFENGCYLRRQKRFKCEKQLALKEAAGAAGSGKKAAAGAQASQAQLGEAAGPASETPAGTESPHSSASPCQEHKRGGLGELKGTPAAALSPPEPAPSPGQQQQAAAHLLGPPHHPGLPPEAHLKPEHHYAFNHPFSINNLMSSEQQHHHSHHHHQPHKMDLKAYEQVMHYPGYGSPMPGSLAMGPVTNKTGLDASPLAADTSYYQGVYSRPIMNSS
notes: FOXA2, human cDNA, full length, cloned into pGEX-4T-1-GST; also called purified GST-FOXA2
Consider B1, for which the binding result in the assay with His-tagged TRIM36 is given as “binds”.

B2: His-tagged FOXA2 (natural protein, human, UniProt Q9Y261 1-457, looked up)
chain: MLGAVKMEGHEPSDWSSYYAEPEGYSSVSNMNAGLGMNGMNTYMSMSAAAMGSGSGNMSAGSMNMSSYVGAGMSPSLAGMSPGAGAMAGMGGSAGAAGVAGMGPHLSPSLSPLGGQAAGAMGGLAPYANMNSMSPMYGQAGLSRARDPKTYRRSYTHAKPPYSYISLITMAIQQSPNKMLTLSEIYQWIMDLFPFYRQNQQRWQNSIRHSLSFNDCFLKVPRSPDKPGKGSFWTLHPDSGNMFENGCYLRRQKRFKCEKQLALKEAAGAAGSGKKAAAGAQASQAQLGEAAGPASETPAGTESPHSSASPCQEHKRGGLGELKGTPAAALSPPEPAPSPGQQQQAAAHLLGPPHHPGLPPEAHLKPEHHYAFNHPFSINNLMSSEQQHHHSHHHHQPHKMDLKAYEQVMHYPGYGSPMPGSLAMGPVTNKTGLDASPLAADTSYYQGVYSRPIMNSS
notes: FOXA2, human; construct and limits of the His-tagged protein are not described; also called His-FOXA2; source: purified
Consider B2, for which the binding result with GST-TRIM36 is listed as “binds”.
